Measured values published in US5831013, “Capsid polypeptides and use to inhibit viral packaging” (The Research Foundation of State University of New York, dated 1998).

T1: ScVLa capsid protein Cap, full size (697 amino acids) (ScVLa virus of Saccharomyces cerevisiae)
T1 chain: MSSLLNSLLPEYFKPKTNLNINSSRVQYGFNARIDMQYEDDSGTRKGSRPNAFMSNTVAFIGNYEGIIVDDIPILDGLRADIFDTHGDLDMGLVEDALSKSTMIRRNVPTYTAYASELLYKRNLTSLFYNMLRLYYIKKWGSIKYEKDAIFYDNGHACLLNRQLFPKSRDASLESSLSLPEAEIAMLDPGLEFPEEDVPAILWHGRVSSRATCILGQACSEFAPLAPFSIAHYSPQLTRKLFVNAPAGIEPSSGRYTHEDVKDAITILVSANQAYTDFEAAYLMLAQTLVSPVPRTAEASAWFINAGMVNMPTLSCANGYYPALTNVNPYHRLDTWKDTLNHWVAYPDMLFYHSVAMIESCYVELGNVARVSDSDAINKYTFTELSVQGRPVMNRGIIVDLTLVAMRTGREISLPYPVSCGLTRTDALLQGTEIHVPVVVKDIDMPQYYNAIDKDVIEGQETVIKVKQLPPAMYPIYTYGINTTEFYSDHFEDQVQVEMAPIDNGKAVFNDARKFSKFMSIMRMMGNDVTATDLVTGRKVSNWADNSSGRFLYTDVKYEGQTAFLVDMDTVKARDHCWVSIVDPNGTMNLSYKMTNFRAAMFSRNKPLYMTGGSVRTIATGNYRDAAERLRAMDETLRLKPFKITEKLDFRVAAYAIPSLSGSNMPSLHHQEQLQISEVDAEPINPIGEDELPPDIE

B1: La Cap N-terminal fragment of pGLa1d5 (aa 1-418) (other)
chain: MSSLLNSLLPEYFKPKTNLNINSSRVQYGFNARIDMQYEDDSGTRKGSRPNAFMSNTVAFIGNYEGIIVDDIPILDGLRADIFDTHGDLDMGLVEDALSKSTMIRRNVPTYTAYASELLYKRNLTSLFYNMLRLYYIKKWGSIKYEKDAIFYDNGHACLLNRQLFPKSRDASLESSLSLPEAEIAMLDPGLEFPEEDVPAILWHGRVSSRATCILGQACSEFAPLAPFSIAHYSPQLTRKLFVNAPAGIEPSSGRYTHEDVKDAITILVSANQAYTDFEAAYLMLAQTLVSPVPRTAEASAWFINAGMVNMPTLSCANGYYPALTNVNPYHRLDTWKDTLNHWVAYPDMLFYHSVAMIESCYVELGNVARVSDSDAINKYTFTELSVQGRPVMNRGIIVDLTLVAMRTGREISLPYPV
B2: La Cap N-terminal fragment of nonsense mutant pGLa1m5 (S419O, aa 1-418) (other)
chain: MSSLLNSLLPEYFKPKTNLNINSSRVQYGFNARIDMQYEDDSGTRKGSRPNAFMSNTVAFIGNYEGIIVDDIPILDGLRADIFDTHGDLDMGLVEDALSKSTMIRRNVPTYTAYASELLYKRNLTSLFYNMLRLYYIKKWGSIKYEKDAIFYDNGHACLLNRQLFPKSRDASLESSLSLPEAEIAMLDPGLEFPEEDVPAILWHGRVSSRATCILGQACSEFAPLAPFSIAHYSPQLTRKLFVNAPAGIEPSSGRYTHEDVKDAITILVSANQAYTDFEAAYLMLAQTLVSPVPRTAEASAWFINAGMVNMPTLSCANGYYPALTNVNPYHRLDTWKDTLNHWVAYPDMLFYHSVAMIESCYVELGNVARVSDSDAINKYTFTELSVQGRPVMNRGIIVDLTLVAMRTGREISLPYPV
B3: La Cap N-terminal fragment of nonsense mutant pGLa1m3 (K506O, aa 1-505) (other)
chain: MSSLLNSLLPEYFKPKTNLNINSSRVQYGFNARIDMQYEDDSGTRKGSRPNAFMSNTVAFIGNYEGIIVDDIPILDGLRADIFDTHGDLDMGLVEDALSKSTMIRRNVPTYTAYASELLYKRNLTSLFYNMLRLYYIKKWGSIKYEKDAIFYDNGHACLLNRQLFPKSRDASLESSLSLPEAEIAMLDPGLEFPEEDVPAILWHGRVSSRATCILGQACSEFAPLAPFSIAHYSPQLTRKLFVNAPAGIEPSSGRYTHEDVKDAITILVSANQAYTDFEAAYLMLAQTLVSPVPRTAEASAWFINAGMVNMPTLSCANGYYPALTNVNPYHRLDTWKDTLNHWVAYPDMLFYHSVAMIESCYVELGNVARVSDSDAINKYTFTELSVQGRPVMNRGIIVDLTLVAMRTGREISLPYPVSCGLTRTDALLQGTEIHVPVVVKDIDMPQYYNAIDKDVIEGQETVIKVKQLPPAMYPIYTYGINTTEFYSDHFEDQVQVEMAPIDNG
B4: La Cap N-terminal fragment of nonsense mutant pGLa1m4 (I443O, aa 1-442) (other)
chain: MSSLLNSLLPEYFKPKTNLNINSSRVQYGFNARIDMQYEDDSGTRKGSRPNAFMSNTVAFIGNYEGIIVDDIPILDGLRADIFDTHGDLDMGLVEDALSKSTMIRRNVPTYTAYASELLYKRNLTSLFYNMLRLYYIKKWGSIKYEKDAIFYDNGHACLLNRQLFPKSRDASLESSLSLPEAEIAMLDPGLEFPEEDVPAILWHGRVSSRATCILGQACSEFAPLAPFSIAHYSPQLTRKLFVNAPAGIEPSSGRYTHEDVKDAITILVSANQAYTDFEAAYLMLAQTLVSPVPRTAEASAWFINAGMVNMPTLSCANGYYPALTNVNPYHRLDTWKDTLNHWVAYPDMLFYHSVAMIESCYVELGNVARVSDSDAINKYTFTELSVQGRPVMNRGIIVDLTLVAMRTGREISLPYPVSCGLTRTDALLQGTEIHVPVVVKD
B5: La Cap N-terminal fragment of pGLa1d1 (aa 1-502) (other)
chain: MSSLLNSLLPEYFKPKTNLNINSSRVQYGFNARIDMQYEDDSGTRKGSRPNAFMSNTVAFIGNYEGIIVDDIPILDGLRADIFDTHGDLDMGLVEDALSKSTMIRRNVPTYTAYASELLYKRNLTSLFYNMLRLYYIKKWGSIKYEKDAIFYDNGHACLLNRQLFPKSRDASLESSLSLPEAEIAMLDPGLEFPEEDVPAILWHGRVSSRATCILGQACSEFAPLAPFSIAHYSPQLTRKLFVNAPAGIEPSSGRYTHEDVKDAITILVSANQAYTDFEAAYLMLAQTLVSPVPRTAEASAWFINAGMVNMPTLSCANGYYPALTNVNPYHRLDTWKDTLNHWVAYPDMLFYHSVAMIESCYVELGNVARVSDSDAINKYTFTELSVQGRPVMNRGIIVDLTLVAMRTGREISLPYPVSCGLTRTDALLQGTEIHVPVVVKDIDMPQYYNAIDKDVIEGQETVIKVKQLPPAMYPIYTYGINTTEFYSDHFEDQVQVEMAPI
B6: La Cap N-terminal fragment of pGLa1d6 (aa 1-401) (other)
chain: MSSLLNSLLPEYFKPKTNLNINSSRVQYGFNARIDMQYEDDSGTRKGSRPNAFMSNTVAFIGNYEGIIVDDIPILDGLRADIFDTHGDLDMGLVEDALSKSTMIRRNVPTYTAYASELLYKRNLTSLFYNMLRLYYIKKWGSIKYEKDAIFYDNGHACLLNRQLFPKSRDASLESSLSLPEAEIAMLDPGLEFPEEDVPAILWHGRVSSRATCILGQACSEFAPLAPFSIAHYSPQLTRKLFVNAPAGIEPSSGRYTHEDVKDAITILVSANQAYTDFEAAYLMLAQTLVSPVPRTAEASAWFINAGMVNMPTLSCANGYYPALTNVNPYHRLDTWKDTLNHWVAYPDMLFYHSVAMIESCYVELGNVARVSDSDAINKYTFTELSVQGRPVMNRGIIVDL
B7: La Cap N-terminal fragment of pGLa1d4 (aa 1-428) (other)
chain: MSSLLNSLLPEYFKPKTNLNINSSRVQYGFNARIDMQYEDDSGTRKGSRPNAFMSNTVAFIGNYEGIIVDDIPILDGLRADIFDTHGDLDMGLVEDALSKSTMIRRNVPTYTAYASELLYKRNLTSLFYNMLRLYYIKKWGSIKYEKDAIFYDNGHACLLNRQLFPKSRDASLESSLSLPEAEIAMLDPGLEFPEEDVPAILWHGRVSSRATCILGQACSEFAPLAPFSIAHYSPQLTRKLFVNAPAGIEPSSGRYTHEDVKDAITILVSANQAYTDFEAAYLMLAQTLVSPVPRTAEASAWFINAGMVNMPTLSCANGYYPALTNVNPYHRLDTWKDTLNHWVAYPDMLFYHSVAMIESCYVELGNVARVSDSDAINKYTFTELSVQGRPVMNRGIIVDLTLVAMRTGREISLPYPVSCGLTRTDAL
B8: La Cap fragment of pGLa1d8 (aa 98-443) (other)
chain: LSKSTMIRRNVPTYTAYASELLYKRNLTSLFYNMLRLYYIKKWGSIKYEKDAIFYDNGHACLLNRQLFPKSRDASLESSLSLPEAEIAMLDPGLEFPEEDVPAILWHGRVSSRATCILGQACSEFAPLAPFSIAHYSPQLTRKLFVNAPAGIEPSSGRYTHEDVKDAITILVSANQAYTDFEAAYLMLAQTLVSPVPRTAEASAWFINAGMVNMPTLSCANGYYPALTNVNPYHRLDTWKDTLNHWVAYPDMLFYHSVAMIESCYVELGNVARVSDSDAINKYTFTELSVQGRPVMNRGIIVDLTLVAMRTGREISLPYPVSCGLTRTDALLQGTEIHVPVVVKDI
B9: La Cap fragment of pGLa1d7 (aa 6-443) (other)
chain: NSLLPEYFKPKTNLNINSSRVQYGFNARIDMQYEDDSGTRKGSRPNAFMSNTVAFIGNYEGIIVDDIPILDGLRADIFDTHGDLDMGLVEDALSKSTMIRRNVPTYTAYASELLYKRNLTSLFYNMLRLYYIKKWGSIKYEKDAIFYDNGHACLLNRQLFPKSRDASLESSLSLPEAEIAMLDPGLEFPEEDVPAILWHGRVSSRATCILGQACSEFAPLAPFSIAHYSPQLTRKLFVNAPAGIEPSSGRYTHEDVKDAITILVSANQAYTDFEAAYLMLAQTLVSPVPRTAEASAWFINAGMVNMPTLSCANGYYPALTNVNPYHRLDTWKDTLNHWVAYPDMLFYHSVAMIESCYVELGNVARVSDSDAINKYTFTELSVQGRPVMNRGIIVDLTLVAMRTGREISLPYPVSCGLTRTDALLQGTEIHVPVVVKDI
B10: La Cap N-terminal fragment of pGLa1d2 (aa 1-476) (other)
chain: MSSLLNSLLPEYFKPKTNLNINSSRVQYGFNARIDMQYEDDSGTRKGSRPNAFMSNTVAFIGNYEGIIVDDIPILDGLRADIFDTHGDLDMGLVEDALSKSTMIRRNVPTYTAYASELLYKRNLTSLFYNMLRLYYIKKWGSIKYEKDAIFYDNGHACLLNRQLFPKSRDASLESSLSLPEAEIAMLDPGLEFPEEDVPAILWHGRVSSRATCILGQACSEFAPLAPFSIAHYSPQLTRKLFVNAPAGIEPSSGRYTHEDVKDAITILVSANQAYTDFEAAYLMLAQTLVSPVPRTAEASAWFINAGMVNMPTLSCANGYYPALTNVNPYHRLDTWKDTLNHWVAYPDMLFYHSVAMIESCYVELGNVARVSDSDAINKYTFTELSVQGRPVMNRGIIVDLTLVAMRTGREISLPYPVSCGLTRTDALLQGTEIHVPVVVKDIDMPQYYNAIDKDVIEGQETVIKVKQLPPAMYPI

Target: T1, ScVLa capsid protein Cap, full size …
Assay: cell-based or functional assay

Row | Binder | Curing (%) of ScVLa [%]
1 | B1 | < 10
2 | B2 | < 10
3 | MSSLLNSLLP [La Cap N-terminal fragment of nonsense mutant pGLa1m6 (E11O, aa 1-10)] | < 10
4 | B3 | 100
5 | B4 | 100
6 | B5 | 100
7 | B6 | < 10
8 | B7 | 50
9 | B8 | < 10
10 | B9 | < 10
11 | B10 | 100
